Drawing on patent US20050026157, “Use of chimeric nucleases to stimulate gene targeting” (published 2005), this text covers activity (fold stimulation of gene targeting), activity (% CD8 negative cells) and activity for twelve molecules.

The subject of data set [1] is GFP-CN1 chimeric nuclease (synthetic). Description: cell_activity. The following applies: paired with GFP-CN2, 293 cells.
In data set [2] the test system is GFP-CN2 chimeric nuclease (synthetic). Description: cell_activity. The following applies: paired with GFP-CN1, 293 cells.
For data set [3], the system named is HBGZF1 chimeric nuclease (synthetic). The experiment in a line: cell_activity. Particulars: with ZIF-L3-Fn on hybrid target; no significant stimulation alone.
The target in data set [4] is ZIF-L3-Fn chimeric nuclease (Zif268 zinc fingers, 3 aa linker, FokI nuclease domain) (UniProt P08046). The experiment in a line: cell_activity. The following applies: QQRZIF6 target, heterodimer with QQR-L0-Fn; no significant stimulation alone; FIG. 3A prints Zif site as GCGTGGTCG
Sequence of ZIF-L3-Fn chimeric nuclease (Zif268 zinc fingers, 3 aa linker, FokI nuclease domain) (P08046 whole entry, change not shown, the tested form may be a part): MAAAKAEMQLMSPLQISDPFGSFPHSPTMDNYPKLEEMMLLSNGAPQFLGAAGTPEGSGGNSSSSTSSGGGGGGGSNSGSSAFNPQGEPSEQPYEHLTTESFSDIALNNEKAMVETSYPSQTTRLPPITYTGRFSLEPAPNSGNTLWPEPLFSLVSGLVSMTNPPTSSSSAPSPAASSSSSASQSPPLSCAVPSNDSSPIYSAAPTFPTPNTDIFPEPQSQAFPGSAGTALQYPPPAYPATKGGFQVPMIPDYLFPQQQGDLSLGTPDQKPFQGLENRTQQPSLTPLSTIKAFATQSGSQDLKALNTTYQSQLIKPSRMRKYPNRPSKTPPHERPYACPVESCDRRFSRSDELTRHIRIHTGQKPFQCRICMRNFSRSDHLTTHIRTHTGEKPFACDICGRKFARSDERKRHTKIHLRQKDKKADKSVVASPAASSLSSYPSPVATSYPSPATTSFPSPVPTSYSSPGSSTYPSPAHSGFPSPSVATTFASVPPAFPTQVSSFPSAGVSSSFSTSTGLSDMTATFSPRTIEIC
In data set [5] the test system is HBGZF4 chimeric nuclease (synthetic). Description: cell_activity. The following applies: with ZIF-L3-Fn on hybrid target; ~30 fold alone.
Data set [6] relates to QQR-L18-Fn chimeric nuclease (QQR zinc finger triplet, 18 aa linker, FokI nuclease domain) (synthetic). Description: cell_activity. Particulars: homodimer, 293 cells.
The subject of data set [7] is QQR-L0-Fn chimeric nuclease (QQR zinc finger triplet, no linker, FokI nuclease domain) (synthetic). The experiment in a line: cell_activity.
Data set [8] concerns HCGCZF2 chimeric nuclease (synthetic). The experiment in a line: cell_activity. Particulars: with ZIF-L3-Fn on hybrid target; no significant stimulation alone.
Data set [9] concerns CD8CN2 chimeric nuclease (synthetic). The experiment in a line: cell_activity. Particulars: paired with CD8CN1; 5% without nucleases.
In data set [10] the test system is CD8CN1 chimeric nuclease (synthetic). The experiment in a line: cell_activity. Particulars: paired with CD8CN2; 5% without nucleases.
Data set [11] addresses T1, I-SceI (UniProt P03882 P03882:1-235).
T1 sequence: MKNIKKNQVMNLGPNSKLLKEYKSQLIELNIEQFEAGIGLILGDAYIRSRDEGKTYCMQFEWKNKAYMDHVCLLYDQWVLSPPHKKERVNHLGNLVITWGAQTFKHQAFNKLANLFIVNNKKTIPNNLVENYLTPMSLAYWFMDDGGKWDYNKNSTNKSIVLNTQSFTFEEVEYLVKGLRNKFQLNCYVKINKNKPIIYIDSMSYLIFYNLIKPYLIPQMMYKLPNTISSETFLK
The experiment in a line: cell_activity; homing endonuclease, A658 target, 293 cells. An excerpt: FIG. 1A illustrates a GFP gene targeting system. The artificial gene target (A658) consisted of a GFP gene mutated by a 35 basepair insertion which includes a stop codon and a recognition site for the I-SceI endonuclease (Sce) (5′ […] 3′) at basepair 327 of the coding sequence. The GFP gene was driven by a hybrid cytomegalovirus enhancer/chicken β3-actin promoter (“CMV/CBA” or “CBA”). The GFP gene was part of bicistronic transcript in which an internal ribosomal entry site (“IRES”) allowed translation of the human CD8α gene (“CD8”). The bicistronic message contained a Woodchuck post-trancriptional regulatory element (“WPRE”) to increase messenger RNA levels (Zufferey et al., 1999, J Virol, 73:2886-92). Finally, the locus contained a gene with the phosphoglycerate kinase promoter (“PGK”) driving the neomycin phosphotransferase gene (NEO) to allow selection by the antibiotic G418. […] Gene targeting was measured by transfecting 293/A658 cells with RS2100 with or without a Sce expression plasmid along with a control plasmid (pON405) to determine the transfection efficiency. […] The cells were then incubated for 3 days and the percentage of GFP positive cells measured by flow cytometry using a FACScan (BD Biosciences, San Jose, Calif.). The gene targeting rate was determined by normalizing the measured percentage of GFP positive cells to the transfection efficiency.

In the case of “GAAGATGGT (double strand) [GFP-CN1 half-site]”, the activity (fold stimulation of gene targeting) in [1] worked out at 1000.
For the molecule “GACGACGGC (double strand) [GFP-CN2 half-site]”, the activity (fold stimulation of gene targeting) in data set [2] was 1000.
Consider “GAGGTTGCT (double strand) [HBGZF1 half-site]”, for which the activity (fold stimulation of gene targeting) in [3] was > 4000.
With “GCGTGGGCG (double strand) [Zif268 half-site]”, the activity (fold stimulation of gene targeting) in data set [4] is > 5000.
For the molecule “GGCAAGGTG (double strand) [HBGZF4 half-site]”, the activity (fold stimulation of gene targeting) in data set [5] stood at 60.
As to “GGGGAAGAA (double strand) [QQR6 target (inverted QQR sites, 6 bp spacer)]”, the activity (fold stimulation of gene targeting) in data set [6] was 17; in [7] (homodimer, 293 cells, as efficient as I-SceI), > 2000.
Consider “GGGGAAGAA (double strand) [QQR8 target (inverted QQR sites, 8 bp spacer)]”, for which the activity (fold stimulation of gene targeting) in [6] is 260.
On to “GGGGAAGAA (double strand) [QQR half-site in QQRZIF6]”, for which the activity (fold stimulation of gene targeting) in data set [7] (QQRZIF6 target, heterodimer with ZIF-L3-Fn, no significant stimulation alone) was > 5000.
For the molecule “GGGGGAGCA (double strand) [HCGCZF2 half-site]”, the activity (fold stimulation of gene targeting) in [8] is > 200.
For the molecule “GTCGCAGCC (double strand) [CD8CN2 half-site]”, the activity (% CD8 negative cells) in data set [9] was > 20.
As for “GTGGGCGCC (double strand) [CD8CN1 half-site]”, the activity (% CD8 negative cells) in [10] is > 20.

B1: I-SceI site in A658 (dsDNA)
DNA 1: TAGGGATAACAGGGTAAT
DNA 2: ATTACCCTGTTATCCCTA
B1: the activity in [11] is > 2000 fold stimulation of gene targeting.
